Data on three molecules can be found in patent US20200095336A1.

Usually Kd stands for the constant that tells how readily two partners part at equilibrium. A low value points to higher affinity. As a reminder, the IC50 is the concentration needed to halve the response being measured. Higher therefore signals a need for much substance.

Experiment [1] has as its target midgut brush-border membrane vesicle protein BBMV of Plutella xylostella. Description: BLI (Octet), BBMV coated on APS biosensor, analyte at 4, 2, 1 and 0.5 µM. (In general: In BLI a coated tip is dipped into the sample, and binding shifts an interference pattern.)
Experiment [2] shares this target. Description: competitive ELISA on coated BBMV; Cry1Ab varied against CCL-CCL_scFv (competitor, detected by its His tag). (In general: In an ELISA, binding on a coated surface is turned into a signal by an enzyme label.)
The target is the same in experiment [3]. The experiment can be described thus: competitive ELISA on coated BBMV; Cry1Ac varied against CCL-CCL_scFv (competitor, detected by its His tag).
The target is the same in experiment [4]. Description: ELISA on coated BBMV, anti-His-tag HRP.

Bt toxin Cry1Ab (ligand) yielded a Kd in experiment [1] of 127 nM. In addition, the IC50 in experiment [2] is 3.02 µg/mL.

In the case of Bt toxin Cry1Ac (ligand), in experiment [3], the IC50 came out at 1.7 µg/mL and the inhibition rate came to 90%.

B1: human-derived molecularly modified insecticidal protein CCL-CCL_scFv (scFv)
scFv: MATDIQMTQSPSSLSASVGDRVTITCRASQSISSYLNWYQQKPGKAPKLLIYAASRLQSGVPSRFSGSGSGTDFTLTISSLQPEDFATYYCQQTSHPPLTFGQGTKVEIKRSSGGGGSGGGGSGGGGSTDIQMTQSPSSLSASVGDRVTITCRASQSISSYLNWYQQKPGKAPKLLIYAASRLQSGVPSRFSGSGSGTDFTLTISSLQPEDFATYYCQQTSHPPLTFGQGTKVEIKR
With B1, in experiment [1], the Kd came to 41.6 nM. The OD450 in experiment [4] was above 3 OD450.
